Experimental data taken from publication doi:10.1101/2022.08.03.502720 (bioRxiv, 2022).

Biological target: the molecule itself
Experiment: DEER

B1: CueR_19F58_L60H_G64H mutant (natural protein, E. coli)
chain: MNISDVAKITGLTSKAIRFYEEKGLVTPPMRSENGYRTYTQQHLNELTLLRQARQVGFNHEESHELVNLFNDPQRHSADVKRRTLEKVAEIERHIEELQSMRDQLLALANACPGDDSADCPIIENLSGCCHHRAG
modifications: 19F-phenylalanine at F58; Cu(II)-NTA spin label bound at the dHis site (L60H, G64H)
  binding result: binds
